Molecular target: T1, Strep-tag-Chs2-V377I-215-629 (S. cerevisiae, UniProt P14180 215-629, V377I)
T1 construct: Chs2 (chitin synthase II), S. cerevisiae, residues 215-629 with the hypermorphic change V377I; also called Strep-tag-Chs2-215-629-V377I; source: E. coli Rosetta, in cell extract
T1 sequence (looked up): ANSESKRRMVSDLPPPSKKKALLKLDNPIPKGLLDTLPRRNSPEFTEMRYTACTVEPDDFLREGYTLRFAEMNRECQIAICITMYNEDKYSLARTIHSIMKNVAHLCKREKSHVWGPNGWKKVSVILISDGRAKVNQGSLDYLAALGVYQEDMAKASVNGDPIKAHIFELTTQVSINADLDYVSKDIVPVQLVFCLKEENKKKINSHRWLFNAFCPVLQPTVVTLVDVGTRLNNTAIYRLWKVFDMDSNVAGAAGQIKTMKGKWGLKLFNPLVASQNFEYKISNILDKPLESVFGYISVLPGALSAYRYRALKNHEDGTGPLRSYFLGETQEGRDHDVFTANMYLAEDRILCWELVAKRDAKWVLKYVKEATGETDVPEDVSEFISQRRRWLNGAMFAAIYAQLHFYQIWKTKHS
Assay: pull-down; pairs of E. coli cultures mixed, one cell extract; Strep-tagged protein isolated on Strep-Tactin Superflow resin, eluted with 2.5 mM d-desthiobiotin; immunoblot with anti-Strep and anti-His
Conditions: partners not purified

B1: 6His-tagged-Inn1 (natural protein, S. cerevisiae, UniProt P53901 1-409, looked up)
chain: MSEEVWNGNQGILSVYVSKARDLPNLNKLDKQNVMLRLRIAHMTRASNTLHRAGQNPVFHYLEKFDITPEIKPLMYVEVYCDRRKKSPLPIGRCEIDLLNAIRADPKEGYCTWYELKRSGDEFAGTIFIELTFTPKVPRLNRDDLNKEMDRLDSSMAMRPIPPLPTESEYDYVHGSTMRQITPQCVSTSHEDKDEGQPYRNGNVFSMSSKSDTAVLANSNDPIILPPTFSASMGTTSTLETNDTAISNTSNTKFHFANLRKLKEKINIFKNPDSSTNNCQNESNKVDIEALQKAIGVTSLSYDEDDDDDDENDAFYSSSHRVSHNYNQPPLPPIPTRDDMSNYSSSRNTPLVRRDRPSRLDSSSPNSHPHPSGLNSPKLPPLPTTSNSNFNSRKNSMSPTRKRPPPRLS
notes: Inn1, S. cerevisiae; also called 6His-Inn1; source: E. coli Rosetta, in cell extract
- amount of Inn1 co-purified, fold over that with Strep-tag-Chs2-215-629: ~3 fold

From publication PMC5895073, “Cell polarity protein Spa2 coordinates Chs2 incorporation at the division site in budding yeast” (PLoS Genetics, 2018)
